# Experimental data: IntAct's records for PubMed 12718882
# B1: Splicing factor U2AF 65 kDa subunit (Homo sapiens), P26368 (parent)
# chain: MSDFDEFERQLNENKQERDKENRHRKRSHSRSRSRDRKRRSRSRDRRNRDQRSASRDRRRRSKPLTRGAKEEHGGLIRSPRHEKKKKVRKYWDVPPPGFEHITPMQYKAMQAAGQIPATALLPTMTPDGLAVTPTPVPVVGSQMTRQARRLYVGNIPFGITEEAMMDFFNAQMRLGGLTQAPGNPVLAVQINQDKNFAFLEFRSVDETTQAMAFDGIIFQGQSLKIRRPHDYQPLPGMSENPSVYVPGVVSTVVPDSAHKLFIGGLPNYLNDDQVKELLTSFGPLKAFNLVKDSATGLSKGYAFCEYVDINVTDQAIAGLNGMQLGDKKLLVQRASVGAKNATLVSPPSTINQTPVTLQVPGLMSSQVQMGGHPTEVLCLMNMVLPEELLDDEEYEEIVEDVRDECSKYGLVKSIEIPRPVDGVEVPGCGKIFVEFTSVFDCQKAMQGLTGRKFANRVVVTKYCDPDSYHRRDFW
# partner: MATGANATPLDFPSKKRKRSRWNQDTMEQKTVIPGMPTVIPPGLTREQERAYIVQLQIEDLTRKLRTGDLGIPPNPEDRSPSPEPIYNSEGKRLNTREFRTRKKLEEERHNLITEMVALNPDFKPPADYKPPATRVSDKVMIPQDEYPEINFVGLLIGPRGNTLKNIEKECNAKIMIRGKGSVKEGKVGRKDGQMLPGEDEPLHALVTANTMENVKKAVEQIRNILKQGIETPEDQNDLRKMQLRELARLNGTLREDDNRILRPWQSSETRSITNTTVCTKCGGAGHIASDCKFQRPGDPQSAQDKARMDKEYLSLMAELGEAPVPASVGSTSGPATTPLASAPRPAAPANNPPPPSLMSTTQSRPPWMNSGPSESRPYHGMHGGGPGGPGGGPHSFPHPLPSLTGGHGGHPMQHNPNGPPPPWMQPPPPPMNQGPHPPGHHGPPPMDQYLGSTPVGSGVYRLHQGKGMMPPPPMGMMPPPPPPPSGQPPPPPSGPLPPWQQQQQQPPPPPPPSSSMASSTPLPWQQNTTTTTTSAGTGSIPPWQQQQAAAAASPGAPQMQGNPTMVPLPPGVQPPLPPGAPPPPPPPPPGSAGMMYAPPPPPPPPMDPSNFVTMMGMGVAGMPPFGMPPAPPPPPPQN
# B2: Splicing factor 1 (Homo sapiens), Q15637 (parent)
# chain: B1 partner
# Variants of: B1
# Settings: with sf01_human SF1, Q15637
row,effect of a mutation on the interaction,Variant
1,decreasing interaction,D391A;D392A;E393A;E394A
2,disrupting interaction,D391R;D392R;E393K;E394K
3,disrupting interaction,E396G;E397A
4,disrupting interaction,E387R;E388R
5,disrupting interaction,E396K;E397K
6,decreasing interaction,F454Y
7,decreasing interaction,F454A
8,with no effect,E387G;E388A
9,with no effect,E396A;E397A

# Variants of: B2
# Settings: with U2AF2, P26368
row,Variant,effect of a mutation on the interaction
1,Q24A,with no effect
2,K15E,decreasing interaction
3,W22F,with no effect
4,K16E;R17D;K18E,disrupting interaction
5,K16A;R17A;K18A,with no effect

# The remaining lines, values ahead:
row,effect of a mutation on the interaction,Variant
1,disrupting interaction,K15E;K16E;R17D
2,with no effect,R17E
3,with no effect,N23A
4,with no effect,R21K
5,disrupting interaction,R21D
6,disrupting interaction,W22A
7,with no effect,R19E
